How the values were obtained:
[1] = Procedure: Molar masses of the samples were determined with universal calibration with the refractive index detector and the viscosity detector. The universal calibration curve was based on polystyrene standards [Polymer Laboratories (Amherst, Mass.) and Aldrich (Oakville, ON)] using the molar masses determined by the manufacturer and the intrinsic viscosities measured by the apparatus. The software OmniSEC™ software from Viscotek was used for data collection and calibration. Separation in THF was performed by injecting 100 μL of 1.5-2 mg/mL solutions of standards or samples into thermostatically controlled SuperRes™ columns [35° C.; PAS-102, PAS102.5, PAS-103L, each 300 mm×8 mm; PolyAnalytik (London, ON)]. The flow rate was 1 mL/min.
Alternatively, a thin film was prepared from 1 g of commercial available PCL pellets and used for degradation. The polymer was dissolved in dichloromethane in a 1 L beaker. The solvent was allowed to evaporate overnight and the resulting film dried to constant weight under reduced pressure. Prior to enzymatic treatment the film was cut into pieces (20 mg) of approximately 1.5 cm×1.5 cm and thickness of approximately 0.1 mm. The reaction mixture was monitored by HPLC and SEC as described above.
To quantify this further, pellets of polycaprolactone (PCL) as well as films of PCL were incubated with KrCUT at various enzyme concentrations (1.25 μM, 2.5 μM, and 5 μM representing 4.7, 9.5 and 19 enzyme Units) at 37° C. The degradation of the polymer was followed over time by analyzing aliquots of the reaction mixture by HPLC for the detection of the released monomer (6-hydroxyhexanoic acid) and characterization of the remaining polymer by SEC after lypholization of the sample.

[2] = pH optimum in Universal Buffer; type: biochemical; details: pH 5-11, p-nitrophenyl butyrate
Procedure: (§1) Esterase activity was determined by monitoring the formation of pNP at 410 nm from various pNP-esters using a Beckman UV spectrophotometer (model DU 640) (21). Substrates were dissolved in isopropanol and were added to 50 mM sodium phosphate buffer pH 8.0 to give 10% (v/v) total isopropanol concentration in a 1 mL reaction volume. pNP-butyrate was used at a final concentration of 1.2 mM. For pNP-caprylate, myristate and palmitate, the final concentration ranged from 0.1 to 0.5 mM. The reaction (1 mL) was started by adding an appropriate amount of enzyme. One enzyme unit (U) is defined as the amount of enzyme that produced 1 μmol of product (pNP) per min; specific activity is expressed as U/mg protein. A molar extinction coefficient of 15 mM^−1 cm^−1 for pNP is used for calculating enzyme activity.
Universal Buffer solutions were prepared according to Britton and Robinson (Surinenaite et al., 2002), having the selected pH value from 5-11. Activity of KrCUT and KrCUT189 were measured at the indicated pH, using p-nitrophenyl butyrate as substrate as described in Example 1, section 1.6). Curves were obtained by plotting values of activity against pH.

[3] = Substrate range on p-NP esters, KrCUT versus KrCUT189; type: biochemical
Procedure: as §1

[4] = Degradation of poly(1,3-propylene adipate); details: 2.5 μM, after 24 hours
[5] = Adsorption assay on PHB granules (Langmuir isotherm); type: binding
Procedure: Purified KrCUT of concentrations ranging from 0.16 to 3.2 mg/mL were mixed with 25 mg PHB in 50 mM sodium phosphate (pH 8.0) in a total volume of 1 mL and mixed by gently shaking for 3 h. The PHB polymer was removed by centrifugation and the concentration of protein in the supernatant was determined by the BCA method. The concentration of bound protein at a particular concentration of cutinase was calculated as the difference between a control without added PHB and free cutinase after incubation with PHB.
Adsorption assays were carried out following procedures of Kasuya et al. (1999). Purified KrCUT and KrCUT189 at concentrations ranging from 0.16 to 3.2 mg/mL were added to a suspension of 25 mg PHB in 50 mM sodium phosphate (pH 8.0) in a total volume 1 mL. The mixture was incubated at room temperature with gentle shaking for at least 3 h. The PHB polymer was removed by centrifugation and the concentration of protein in the supernatant was determined by the BCA method. The concentration of bound protein at a particular concentration of cutinase was calculated as the difference between a control without added PHB and free cutinase after incubation with PHB. An isotherm of [Bound](mg/mg PHB) vs [Free] (mM) was generated and binding parameters were determined by non-linear regression using the Langmuir equation:
[formula] where [E]=Ead+[E]e, is the concentration of the protein added; Emax is the maximum amount of protein adsorbed on the polyester granules, and K is the adsorption equilibrium constant of the protein.

B1: KrCUT189: truncated KrCUT lacking the T/P-rich linker and polymer-binding domain; cutinase catalytic domain, SEQ ID NO: 2 (protein)
chain: ATCSDVDVVFARGTGETPGLGVVGGPFVRSLTGELSDRTVTSHAVDYAASSSQASAGPGATAMSAHVREVAAACPSTRFVLGGYSQGATVTDIALGIRTGTTTGTPVPAELAGRVAAVVVFGNPLGLSGRTIATASSTYGPKSKDYCNSSDSVCGSAPKTGTGGHLSYASNGSTTDGARFAAGLVRAAG
modifications: Kineococcus radiotolerans; (1)..(189) KrCUT catalytic domain (KrCUT189)
In the case of B1, the “degradation of PCL pellets and PCL films compared with KrCUT” value [1] is reported as “Nearly identical results”, the pH optimum [2] is reported as 8 and the “activity towards pNB-acetate” value [3] is reported as “little activity”. For the same molecule, the “activity towards pNP-myristate compared to KrCUT” value [3] was “higher”, the “activity with various substrates compared to the full length protein” value [3] was “lower activity” and the “substrate giving the highest activity” value ([3]; p-NP esters) was “pNP-myristate”. The “adipic acid found in the reaction mixture” value [4] was 17% and the “binding to PHB” value [5] was “no binding”.

Reference: patent US10227575B2, “Multi-domain enzymes having cutinase activity, compositions comprising same and uses thereof” (OZYMES, priority 2015, dated 2019)
